# Measured values from paper PMC9856709 (Cancers, 2023).
# Numbered stars: 1 amine (or outer) side, 2 acyl side, 3 side chain; on linkers, the order of the positions; unused ones are H or OH. Square brackets hold non-standard residues; d marks the D form. Peptide text beside a SMILES is read from it. * marks the point of attachment. NOTA = O=C(O)CN1CCN(CC(=O)O)CCN(CC(=O)*)CC1; γGlu = O=C(O)[C@H](CCC(=O)[*:2])N[*:1]; Sta = CC(C)C[C@H](N)[C@@H](O)CC(=O)O; AEEA = NCCOCCOCC(=O)O; Aoc = NCCCCCCCC(=O)O; CO = O=C([*:1])[*:2]
# Description: The average animal weight was 27.4 ± 1.6 g and OLINDA/EXM 1.0 software (adult male phantom) was used to estimate the absorbed doses.
# The well-established “percent kg/g method” using Equation (1) was used to upscale the uptake values in mice to be able to evaluate the dosimetry in humans. The organ weights of the reference adult male were used to calculate the organ uptake in humans and the area under the curve of exponential fits for human time–activity curves was used to calculate the residence times. (%IA/organ)human = [(%IA/g)animal × (kBqTBweight)animal × (gorgan/(kBqTBweight)human](1)
# [1] = estimated for adult male from mouse ex vivo data, percent kg/g method, OLINDA/EXM 1.0
smiles,measurement,setting,value
"CC(C)C[C@H](NC(=O)C[C@H](O)[C@H](CC(C)C)NC(=O)[C@H](Cc1c[nH]cn1)NC(=O)CNC(=O)[C@@H](NC(=O)[C@H](C)NC(=O)[C@H](Cc1c[nH]c2ccccc12)NC(=O)[C@H](CCC(N)=O)NC(=O)[C@@H](Cc1ccccc1)NC(=O)COCCOCCNC(=O)[C@H](CCCCNC(=O)CN1CCN(CC(=O)O)CCN(CC(=O)O)CC1)NC(=O)[C@H](Cc1ccccc1)NC(=O)CCCCCCCNC(=O)CC[C@H](NC(=O)N[C@@H](CCC(=O)O)C(=O)O)C(=O)O)C(C)C)C(N)=O [[^68Ga]Ga-BQ7812, metal not drawn] ({Glu-CO-γGlu-Aoc}-FK(NOTA)[AEEA][dF]QWAVGH[Sta]L-NH2)",Total dose per scan,"after injection of 200–300 MBq, from estimated effective dose",1.66–2.49 mSv
same,"Absorbed doses in the remaining organs and tissues (other than kidneys, heart wall, lower large intestine wall)",estimated for adult male from mouse ex vivo data,below 0.02 mSv/MBq
same,"Absorbed Dose, Adrenals",[1],0.0043 mGy/MBq
same,"Absorbed Dose, Brain",[1],0.0007 mGy/MBq
same,"Absorbed Dose, Breasts",[1],0.0030 mGy/MBq
same,"Absorbed Dose, Gallbladder wall",[1],0.0042 mGy/MBq
same,"Absorbed Dose, Heart wall",[1],0.0265 mGy/MBq
same,"Absorbed Dose, Kidneys",[1],0.0660 mGy/MBq
same,"Absorbed Dose, Liver",[1],0.0044 mGy/MBq
same,"Absorbed Dose, Lower large intestine wall",[1],0.0250 mGy/MBq
same,"Absorbed Dose, Lungs",[1],0.0041 mGy/MBq
same,"Absorbed Dose, Muscle",[1],0.0024 mGy/MBq
same,"Absorbed Dose, Osteogenic cells",[1],0.0080 mGy/MBq
same,"Absorbed Dose, Ovaries",[1],0.0045 mGy/MBq
same,"Absorbed Dose, Pancreas",[1],0.0186 mGy/MBq
same,"Absorbed Dose, Red marrow",[1],0.0057 mGy/MBq
same,"Absorbed Dose, Skin",[1],0.0026 mGy/MBq
same,"Absorbed Dose, Small intestine wall",[1],0.0199 mGy/MBq
same,"Absorbed Dose, Spleen",[1],0.0033 mGy/MBq
same,"Absorbed Dose, Stomach wall",[1],0.0048 mGy/MBq
same,"Absorbed Dose, Testes",[1],0.0030 mGy/MBq
same,"Absorbed Dose, Thymus",[1],0.0038 mGy/MBq
same,"Absorbed Dose, Thyroid",[1],0.0030 mGy/MBq
same,"Absorbed Dose, Total body",[1],0.0044 mGy/MBq
same,"Absorbed Dose, Upper large intestines LI wall",[1],0.0111 mGy/MBq
same,"Absorbed Dose, Urinary bladder wall",[1],0.0036 mGy/MBq
same,"Absorbed Dose, Uterus",[1],0.0042 mGy/MBq
same,Effective dose,[1],0.0083 mSv/MBq
same,Effective dose equivalent,[1],0.0124 mSv/MBq
